Assay [1] addresses T1, FcγRI (UniProt P12314 16-374, limits assumed).
T1 construct: whole, on cells; also called CD64
Nature of the assay: cell-based TR-FRET competition assay (CISBIO kit), FcγRI cells. How it is done: (§1) A cell-based binding assay was utilized to confirm that the amino acid modifications at positions I253, e.g., I253A, and R292, e.g., R292P, were specific to the intended receptors, e.g., reduced binding affinity to the FcRn receptor and FcγRIIb receptor, respectively. Relative binding of Fc constructs and controls to Fc gamma receptors (FcγRs) was measured using cell-based homogeneous time-resolved fluorescence resonance energy transfer (TR-FRET) competition assays (CISBIO®) kits for FcγRI, FcγRIIa H131, FcγRIIb, and FcγRIIIa V158. Assay reagents were prepared according to the manufacturer's instructions. A 10-point, 3-fold serial dilution series, plus one blank per sample, was generated using an automated liquid handler (Freedom EVOware 150, TECAN®). Assay plates were read on a PHERAstar fluorescent reader (BMG Labtech GmbH) at 665 and 620 nm. An IgG1 sample was used as a control.
On the technique in general: In TR-FRET formats the signal depends on donor and acceptor labels being close together.

Assay [2] addresses T2, FcγRIIIa V158 (UniProt P08637 17-254, limits assumed).
T2 construct: whole, on cells; V158 is the allotype as printed (mature numbering); also called CD16a
Nature of the assay: cell-based TR-FRET competition assay (CISBIO kit), FcγRIIIa V158 cells. How it is done: as §1

Assay [3] concerns the target T3, Recombinant human FcRn (human, UniProt P55899 24-297; P61769 21-119, limits assumed).
T3 construct: also called neonatal Fc receptor
Nature of the assay: SPR at pH 6.0; human FcRn in solution over Fc construct captured by goat anti-human IgG. An excerpt: To assess the impact of the amino acid modifications at position I253, e.g., I253A, and R292, e.g., R292P, on FcRn binding a surface plasmon resonance (SPR) binding experiment was designed to measure the affinity and normalized binding level of solution-phase human FcRn to sensor-bound Fc constructs at pH 6.0. A goat anti-human IgG was immobilized on reference and test sensor surfaces using amine coupling chemistry. Fc constructs were captured on the test sensor surface. Recombinant human FcRn was flowed over the sensor surface in a dilution series with a top concentration of 1.0 μM. The sensor surface was regenerated at the end of each cycle with 10 mM glycine pH 1.7. Double-reference subtracted sensorgrams were subjected to equilibrium binding analysis; the maximum binding level (RMax) and the equilibrium dissociation constant (KD) were estimated. The normalized maximum binding level was calculated by dividing the RMax by the FC-construct capture level. Construct 16 was captured at the same level as construct 4, […] (FIG. 20).

Here are results for two molecules from US20190345206A1 (MOMENTA PHARMACEUTICALS, published 2019).

Numbering of substitutions follows the chain as printed. Names and notes keep the numbering of the source.

T2 sequence (P08637 17-254 F176V limits assumed): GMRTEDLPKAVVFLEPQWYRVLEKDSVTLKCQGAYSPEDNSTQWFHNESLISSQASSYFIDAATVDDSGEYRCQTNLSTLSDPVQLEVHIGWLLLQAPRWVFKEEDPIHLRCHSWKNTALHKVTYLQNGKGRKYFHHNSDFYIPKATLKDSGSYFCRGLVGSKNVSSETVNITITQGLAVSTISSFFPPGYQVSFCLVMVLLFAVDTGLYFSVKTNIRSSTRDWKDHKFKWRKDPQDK
T3 sequence (P55899 24-297 limits assumed, chain 1 of 2): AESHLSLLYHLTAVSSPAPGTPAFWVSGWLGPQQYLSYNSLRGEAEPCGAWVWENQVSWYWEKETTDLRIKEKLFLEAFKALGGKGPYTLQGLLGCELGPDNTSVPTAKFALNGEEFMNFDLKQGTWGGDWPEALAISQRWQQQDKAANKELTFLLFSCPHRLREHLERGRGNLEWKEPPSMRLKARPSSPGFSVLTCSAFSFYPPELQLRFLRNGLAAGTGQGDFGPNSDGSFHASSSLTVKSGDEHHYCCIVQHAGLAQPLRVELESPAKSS
T3 sequence (P61769 21-119 limits assumed, chain 2 of 2): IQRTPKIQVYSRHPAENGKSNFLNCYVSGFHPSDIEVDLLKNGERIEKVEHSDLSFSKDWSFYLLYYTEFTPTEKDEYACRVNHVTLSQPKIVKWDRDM
T1 sequence (P12314 16-374 limits assumed): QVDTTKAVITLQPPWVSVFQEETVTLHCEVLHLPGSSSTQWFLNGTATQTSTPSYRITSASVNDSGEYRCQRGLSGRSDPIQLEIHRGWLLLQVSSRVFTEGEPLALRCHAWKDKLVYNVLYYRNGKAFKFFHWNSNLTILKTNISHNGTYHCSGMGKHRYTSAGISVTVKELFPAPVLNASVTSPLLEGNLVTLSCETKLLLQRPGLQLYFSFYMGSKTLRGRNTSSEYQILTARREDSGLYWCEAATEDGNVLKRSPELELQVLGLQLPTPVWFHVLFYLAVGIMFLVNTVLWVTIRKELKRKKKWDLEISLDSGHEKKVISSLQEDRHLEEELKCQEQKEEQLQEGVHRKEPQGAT

B1: Fc construct 18 (other)
chain 1: DKTHTCPPCPAPELLGGPSVFLFPPKPKDTLMASRTPEVTCVVVDVSHEDPEVKFNWYVDGVEVHNAKTKPPEEQYNSTYRVVSVLTVLHQDWLNGKEYKCKVSNKALPAPIEKTISKAKGQPREPQVYTLPPCRDKLTKNQVSLWCLVKGFYPSDIAVEWESNGQPENNYKTTPPVLDSDGSFFLYSKLTVDKSRWQQGNVFSCSVMHEALHNHYTQKSLSLSPGKGGGGGGGGGGGGGGGGGGGGDKTHTCPPCPAPELLGGPSVFLFPPKPKDTLMISRTPEVTCVVVDVSHEDPEVKFNWYVDGVEVHNAKTKPPEEQYNSTYRVVSVLTVLHQDWLNGKEYKCKVSNKALPAPIEKTISKAKGQPREPQVYTLPPSRDELTKNQVSLTCLVKGFYPSDIAVEWESNGQPENNYKTTPPVLKSDGSFFLYSDLTVDKSRWQQGNVFSCSVMHEALHNHYTQKSLSLSPG
chain 2: DKTHTCPPCPAPELLGGPSVFLFPPKPKDTLMASRTPEVTCVVVDVSHEDPEVKFNWYVDGVEVHNAKTKPPEEQYNSTYRVVSVLTVLHQDWLNGKEYKCKVSNKALPAPIEKTISKAKGQPREPQVCTLPPSRDELTKNQVSLSCAVDGFYPSDIAVEWESNGQPENNYKTTPPVLDSDGSFFLVSKLTVDKSRWQQGNVFSCSVMHEALHNHYTQKSLSLSPG
notes: Construct 4 with R292P in all three Fc domains and I253A in the two N-terminal Fc domains; also called Q1
As to B1, the binding result in assay [1] and in assay [2] was “binds” in each case.

B2: Fc construct 19 (other)
chain 1: B1 chain 1 with I280A
chain 2: B1 chain 2
notes: Construct 4 with R292P and I253A in all three Fc domains; also called Q2
As to B2, the binding result in assay [3] is recorded as “no binding (tested: top concentration of 1.0 µM)”.
